# Measurements taken from article PMC11124013, “Substrate Affinity Is Not Crucial for Therapeutic L-Asparaginases: Antileukemic Activity of Novel Bacterial Enzymes” (Molecules, 2024).
# B1: ReAIV (Rhizobium etli CFN 42) (protein)
# chain: MTNPVTVEVTRGLLVESRHRGAVAVVDGDGKLFFSLGDIDTAVFPRSACKAMQALPLVESGAADAYGFGDKELALACASHNGEEEHVALAASMLSRAGRNVEALECGAHWSMNQKVLIQQARSLDAPTALHNNCSGKHAGFICACCHRDIDPKGYVGYEHPLQVEIRAVMERLTGAVLGAESCGTDGCSIPTYAMPLRNLAHGFARMATGTGLEPLRAKASRRLIEACMAEPFYVAGSGRACTKLMQIAPGRIFVKTGAEGVFCAAIPEKGIGISLKSEDGATRAAEAMVAATLARFFETEETVHAALMAFAAMPMRNWNGIHVGDIRATSVFSA
# B2: EcAIII (Escherichia coli K-12) (protein)
# chain 1: GKAVIAIHGGAGAISRAQMSLQQELRYIEALSAIVETGQKMLEAGESALDVVTEAVRLLEECPLFNAGIGAVFTRDETHELDACVMDGNTLKAGAVAGVSHLRNPVLAARLVMEQSPHVMMIGEGAENFAFARGMERVSPEIFSTSLRYEQLLAARKEGATVLDHSGAPLDEKQKMG
# chain 2: TVGAVALDLDGNLAAATSTGGMTNKLPGRVGDSPLVGAGCYANNASVAVSCTGTGEVFIRALAAYDIAALMDYGGLSLAEACERVVMEKLPALGGSGGLIAIDHEGNVALPFNTEGMYRAWGYAGDTPTTGIYREKGDTVATQ
# notes: synthetic gene, N-terminal 6xHis-tag (pET28a or pMSCG92), expressed in E. coli BL21 Gold (DE3); precursor self-matures into alpha and beta subunits, (alpha-beta)2 heterotetramer
# B3: ReAV (Rhizobium etli CFN 42) (protein)
# chain: MTPSEDFVVTDRGGIVENSHRVHAAVVDAKGRLLYALGNPTRMTLARSAAKPAQALAILETEGVAGYGFDDADIALMCASHSSEDRHIARTRAMLSKIKAEEADLRCGGHPSLSEMVNRSWIKQDFIPTAVCSNCSGKHVGMLAGARAIGAGTDGYHLPDHPMQGRVKRTVAELCDLDAGDVEWGTDGCNLPTPAFPLDRLGRIYAKLASAADGSDAGEGQSTRCAALAHIFRAMARHPEMVAGEGRYCTMLMRAFDGALVGKLGADASYAIGVRASDATRQLGTDGALGISVKIEDGNLEMLYAVVTELLERLGIGSPDVRSQLASFHHPQRVNTMGVTTGGVSFPFKLRGSKSNVDDPRLAAVAR
# notes: gene in pET151D-TOPO, 6xHis-tagged, expressed in E. coli BL21 Gold (DE3); homodimer, Zn in active site
# B4: EcAII (Escherichia coli K-12) (protein)
# chain: LPNITILATGGTIAGGGDSATKSNYTVGKVGVENLVNAVPQLKDIANVKGEQVVNIGSQDMNDNVWLTLAKKINTDCDKTDGFVITHGTDTMEETAYFLDLTVKCDKPVVMVGAMRPSTSMSADGPFNLYNAVVTAADKASANRGVLVVMNDTVLDGRDVTKTNTTDVATFKSVNYGPLGYIHNGKIDYQRTPARKHTSDTPFDVSKLNELPKVGIVYNYANASDLPAKALVDAGYDGIVSAGVGNGNLYKSVFDTLATAAKTGTAVVRSSRVPTGATTQDAEVDDAKYGFVASGTLNPQKARVLLQLALTQTKDPQQIQQIFNQY
# notes: synthetic gene, N-terminal 6xHis-tag (pET28a or pMSCG92), expressed in E. coli BL21 (DE3) deltaansA/deltaansB; tetramer
# Key:
# purified protein [1] = substrate: NC(=O)C[C@H](N)C(=O)O; assay: purified protein; settings: PBS pH 7.4, 37 °C
# Nessler ammonia assay [2] = substrate: NC(=O)C[C@H](N)C(=O)O; assay: Nessler ammonia assay; type: biochemical, Escherichia coli; settings: PBS pH 7.4, 37 °C
# Excerpt: Nessler ammonia assay on EcAIII
# purified protein [3] = substrate: COC(=O)[C@H](Cc1ccccc1)NC(=O)C[C@H](N)C(=O)O; assay: purified protein; type: biochemical, Escherichia coli; settings: PBS pH 7.4, 37 °C, 600 µM α-ketoglutarate, 190 µM NADH
# Nessler ammonia assay [4] = substrate: NC(=O)C[C@H](N)C(=O)O; assay: Nessler ammonia assay; type: biochemical, Rhizobium etli; settings: PBS pH 7.4, 37 °C
# Excerpt: Nessler ammonia assay on ReAV
# [5] = substrate: NC(=O)C[C@H](N)C(=O)O; assay: ITC single-injection method; type: biochemical, Escherichia coli; settings: PBS pH 7.4, 37 °C
# Excerpt: ITC single-injection method on EcAII
protein,measurement,setting,value
B1,Km,purified protein [1],7.16 ± 2.03 mM
same,kcat,purified protein [1],9.98 s⁻¹
same,kcat/Km,purified protein [1],1390 M⁻¹ s⁻¹
B2,Km,Nessler ammonia assay [2],17.66 ± 1.87 mM
same,kcat,Nessler ammonia assay [2],5.77 ± 0.19 s⁻¹
same,kcat/Km,Nessler ammonia assay [2],330 ± 100 M⁻¹ s⁻¹
same,Km,purified protein [3],3.57 ± 0.58 mM
same,kcat,purified protein [3],0.112 ± 0.007 s⁻¹
same,kcat/Km,purified protein [3],31 ± 7 M⁻¹ s⁻¹
B3,Km,Nessler ammonia assay [4],24.81 ± 3.22 mM
same,kcat,Nessler ammonia assay [4],28.5 ± 1.6 s⁻¹
same,kcat/Km,Nessler ammonia assay [4],1150 ± 210 M⁻¹ s⁻¹
B4,Km,[5],0.012 ± 0.002 mM
same,kcat,[5],39 ± 1 s⁻¹
same,kcat/Km,[5],3.3e+06 ± 561000 M⁻¹ s⁻¹
